Laboratory results reported in US8703503B2, “Methods and compositions for inhibition of BCL6 repression” (Albert Einstein School of Medicine of Yeshiva University, priority 2003, dated 2014).
“Also recorded” adds a separate entry of the source. Each block holds one molecule with its values, some of them ahead of it. Residues, ends and D or L forms follow the SMILES beside them. No end group written: not given here.

What was measured:
BCL6 BTB domain [1] = target: T1, BCL6 BTB domain (Homo sapiens, UniProt P41182, C67R/C84N/C8Q); experiment: biochemical
Protocol: Protein Expression and Purification. […] BCL6 BTB domain protein was produced by thrombin digestion of the thioredoxin fusion proteins, and repurified by size-exclusion chromatography in 500 mM NaC1, 20 mM Tris-HCl, 10% glycerol, 1.0 mM TCEP, pH 8.5. Corepressor fusion proteins were biotinylated with BirA and digested with TEV protease to yield peptides for SPR analysis with a biotinylated lysine eight amino acids N-terminal to the first corepressor residue, or digested with thrombin to produce peptides with no additional N-terminal residues for co-crystallization or ITC.
ITC: The binding of SMRT^1414-1430 to BTB domain protein was analyzed on a Microcal VP-ITC instrument at 25° C. All components were in 150 mM NaCl, 20 mM Hepes pH 7.7, 1 mM TCEP. The experiment consisted of thirty 6.93 μL injections of a solution containing 480 μM SMRT^1414-1430 into a sample cell containing 1.8 mL of either BCL6 BTB (23.0 μM) or PLZF BTB (38.5 μM). To correct for dilution and mixing effects, a series of control injections was carried out, in which the heat of dilution was measured in blank titrations by injecting the peptide into the buffer.

BCL6 BTB domain [2] = target: T1, BCL6 BTB domain; experiment: Surface plasmon resonance (SPR) binding of BCL6 BTB domain to immobilized corepressor peptides; design: which is BCL6 residues 5-129, with the point mutations C8Q, C67R and C84N; made in house; settings: for relative binding affinity by SPR: relative to the longer SMRT peptide(s)
Protocol: Protein Expression and Purification. […] BCL6 BTB domain protein was produced by thrombin digestion of the thioredoxin fusion proteins, and repurified by size-exclusion chromatography in 500 mM NaC1, 20 mM Tris-HCl, 10% glycerol, 1.0 mM TCEP, pH 8.5.
SPR: Biotinylated corepressor peptides were coupled to streptavidin-coated sensor chips to a density of 800 response units (Biacore 2000). BCL6 or PLZF BTB protein was serially diluted in running buffer (10 mM Hepes, pH 7.4, 150 mM NaCl, 3 mM EDTA, 0.005% v/v surfactant P20) and injected at a flow rate of 5 μL/min.

[3] = target: T2, BCL6 BTB domain N21K mutant (Homo sapiens, UniProt P41182, C67R/C84N/C8Q/N21K); experiment: Co-purification assay with mutant BCL6 BTB domain N21K; format: binding
T2 construct: which is BCL6 residues 5-129, with the point mutations C8Q, C67R and C84N; thioredoxin-6His-TEV site-BirA motif-thrombin site fusion (N, cleaved yes); made in house; host or cells: E. coli
Protocol: (§1) In vitro binding assays. Co-purification: Equimolar amounts of His-tagged thioredoxin-corepressor fusion protein and BCL6 BTB or PLZF BTB domain were combined, incubated for at least two hours, and loaded onto a Ni-NTA spin column (Qiagen). The column was washed three times with 600 μl of wash buffer (200 mM NaCl, 20 mM Tris-HCl pH 8.0, 10 mM imidazole), and bound protein was released with 400 μl of elution buffer (200 mM NaCl, 20 mM Tris-HCl pH 8.0, 300 mM imidazole). Samples were analyzed on 10-20% SDS-PAGE gels and stained with Coomassie blue.

[4] = target: T3, BCL6 BTB domain H116A mutant (Homo sapiens, UniProt P41182, C67R/C84N/C8Q/H116A); experiment: Co-purification assay with mutant BCL6 BTB domain H116A; format: binding
T3 construct: which is BCL6 residues 5-129, with the point mutations C8Q, C67R and C84N; thioredoxin-6His-TEV site-BirA motif-thrombin site fusion (N, cleaved yes); made in house; host or cells: E. coli
Protocol: as §1

BCL6 BTB domain [5] = target: T1, BCL6 BTB domain; experiment: Electrophoretic mobility shift assay (EMSA) for complex formation of BCoR fragments with BCL6 BTB domain; format: binding; design: which is BCL6 residues 5-129, with the point mutations C8Q, C67R and C84N; made in house; settings: non-denaturing PAGE
Protocol: Further mapping of the minimal BCoR fragment was done with a version of an electrophoretic mobility shift assay (EMSA). Purified BCL6 BTB domain was mixed with a BCoR fragment (either as a fusion protein or as a purified peptide) and incubated at room temperature in a non-denaturing buffer. The mixture was analyzed by non-denaturing polyacrylamide gel electrophoresis (PAGE) and protein bands were visualized with either Coomassie blue staining or silver staining. A change in the position of the BCL6 BTB domain band was indicative of complex formation. […] These two sequences correspond to a S507A / W509A / V511A BCoR triple mutation, and to a S507W / W509S BCoR double mutation, respectively.

BCL6 BTB domain [6] = target: T1, BCL6 BTB domain; experiment: Co-purification assay (Ni-NTA) of His-tagged corepressor fusion proteins with BTB domain; format: binding; design: which is BCL6 residues 5-129, with the point mutations C8Q, C67R and C84N; made in house
Protocol: as §1
The initial BCL6 interacting fragment identified in the yeast two-hybrid screen consisted of residues 112-753 of BCoR (Huynh et al., 2000).

stoicheometry of the interaction by ITC (BCL6 BTB domain [1]): 1.11 ±0.06 SMRT peptides per BCL6 chain | enthalpic contribution ΔH (BCL6 BTB domain [1]; ITC): -23.2 ± 1.6 kcal/mol | entropic contribution −TΔS (BCL6 BTB domain [1]; ITC): 16.4±2.3 | relative binding affinity by SPR (BCL6 BTB domain [2]): stronger binding | binding to N21K mutant BCL6 BTB domain [3]: does not bind | binding to H116A mutant BCL6 BTB domain [4]: does not bind
Molecule: CC[C@H](C)[C@H](NC(=O)[C@H](CO)NC(=O)[C@H](CCCNC(=N)N)NC(=O)CNC(=O)[C@H](C)NC(=O)[C@H](CCC(=O)O)NC(=O)[C@H](CCCCN)NC(=O)[C@@H](NC(=O)[C@@H](NC(=O)[C@H](C)NC(=O)[C@@H](NC(=O)[C@@H](N)CC(C)C)C(C)C)[C@@H](C)O)C(C)C)C(=O)N[C@@H](Cc1c[nH]cn1)C(=O)N[C@@H](CCC(=O)O)C(=O)N[C@H](C(=O)N1CCC[C@H]1C(=O)N[C@@H](CCCNC(=N)N)C(=O)O)[C@@H](C)CC [SMRT^1414-1430, lvatvkeagrsiheipr] (H-LVATVKEAGRSIHEIPR-OH)

Kd (BCL6 BTB domain [1]): 11.4 ± 1 µM
Molecule: CC[C@H](C)[C@H](NC(=O)[C@H](CO)NC(=O)[C@H](CCCNC(=N)N)NC(=O)CNC(=O)[C@H](C)NC(=O)[C@H](CCC(=O)O)NC(=O)[C@H](CCCCN)NC(=O)[C@@H](NC(=O)[C@@H](NC(=O)[C@H](C)NC(=O)[C@@H](NC(=O)[C@@H](N)CC(C)C)C(C)C)[C@@H](C)O)C(C)C)C(=O)N[C@@H](Cc1cnc[nH]1)C(=O)N[C@@H](CCC(=O)O)C(=O)N[C@H](C(=O)N1CCC[C@H]1C(=O)N[C@@H](CCCNC(=N)N)C(=O)O)[C@@H](C)CC [SMRT^1414-1430, lvatvkeagrsiheipr] (H-LVATVKEAGRSIHEIPR-OH)

complex formation with the BCL6 BTB domain (EMSA band shift) (BCL6 BTB domain [5]): do not interact
Molecule: BCoR 494-510: thioredoxin-6his fusion protein with BCoR residues 494-510 (CAIYRSEIISTAPSSWV; also: thioredoxin-6His fusion protein)

complex formation with the BCL6 BTB domain (EMSA band shift) (BCL6 BTB domain [5]): complexes were present
Molecule: BCoR 494-514: thioredoxin-6his fusion protein with BCoR residues 494-514 (CAIYRSEIISTAPSSWVVPGP; also: thioredoxin-6His fusion protein)

complex formation with the BCL6 BTB domain (EMSA band shift) (BCL6 BTB domain [5]): complexes were present
Molecule: BCoR 502-522: thioredoxin-6his fusion protein with BCoR residues 502-522 (ISTAPSSWVVPGPSPNEENNG; also: thioredoxin-6His fusion protein)

complex formation with the BCL6 BTB domain (EMSA band shift) (BCL6 BTB domain [5]): do not interact
Molecule: BCoR 506-522: thioredoxin-6his fusion protein with BCoR residues 506-522 (PSSWVVPGPSPNEENNG; also: thioredoxin-6His fusion protein)

Molecule: CAIYRSEIISTAPSSWVVPGPSPNE (not fully specified) [BCoR 494-518, thioredoxin-6his fusion protein with BCoR residues 494-518]
complex formation with the BCL6 BTB domain (EMSA band shift) (BCL6 BTB domain [5]): forms a complex; also recorded: complexes were present

fold stronger affinity of the BTB domain relative to the longer SMRT peptide (BCL6 BTB domain [2]; SPR, ratio of dissociation constants): 2.5 fold
Molecule: N-CoR^1351-1383: N-CoR corepressor peptide, residues 1351-1383, equivalent to the SMRT fragment (IHEIPRQDILTQESRKTPEVVQSTRPIIEGSIS; UniProt O75376 1351-1383, looked up, fragment)

complex formation with the BCL6 BTB domain (EMSA band shift) (BCL6 BTB domain [5]): did not result in a shift
Molecule: RSEIISTAPASAVAPGP [BCoR peptide with S507A / W509A / V511A triple mutation]

complex formation with the BCL6 BTB domain (EMSA band shift) (BCL6 BTB domain [5]): complexes were present
Molecule: RSEIISTAPSSWVVPGP [BCoR 498-514]

complex formation with the BCL6 BTB domain (EMSA band shift) (BCL6 BTB domain [5]): did not result in a shift
Molecule: RSEIISTAPWSSVVPGP [BCoR peptide with S507W / W509S double mutation]

relative binding affinity by SPR (BCL6 BTB domain [2]): slightly weaker binding
Molecule: SMRT^1417-1441: N-terminally truncated SMRT corepressor peptide, residues 1417-1441 (TVKEAGRSIHEIPREELRHTPELPL; not fully specified)

binding to N21K mutant BCL6 BTB domain [3]: no binding at all | binding to H116A mutant BCL6 BTB domain [4]: significantly reduced affinity
Molecule: Trx-(SMRT-BBD): His-tagged thioredoxin fusion protein of the SMRT-BBD (LVATVKEAGRSIHEIPR; also: His-tagged thioredoxin fusion protein)

binding to BCL6 BTB domain in co-purification assay (BCL6 BTB domain [6]): did not
B1: BCoR 112 to 342: hexahistidine tagged fusion protein containing residues 112 to 342 of BCoR (protein, UniProt Q6W2J9 112-342, looked up, fragment)
chain: LGFSSERNPEMQFKPNTPETVEASAVSGKPPNGFSAIYKTPPGIQKSAVATAEALGLDRPASDKQSPLNINGASYLRLPWVNPYMEGATPAIYPFLDSPNKYSLNMYKALLPQQSYSLAQPLYSPVCTNGERFLYLPPPHYVGPHIPSSLASPMRLSTPSASPAIPPLVHCADKSLPWKMGVSPGNPVDSHAYPHIQNSKQPRVPSAKAVTSGLPGDTALLLPPSPRPSPR
modifications: hexahistidine tag
notes: hexahistidine tagged fusion protein containing residues 112 to 342 of BCoR

binding to BCL6 BTB domain in co-purification assay (BCL6 BTB domain [6]): bound directly | binding to N21K mutant BCL6 BTB domain [3]: did not bind | binding to H116A mutant BCL6 BTB domain [4]: did not bind
B2: BCoR fragment 317-547: hexahistidine tagged fusion protein containing residues 317 to 547 of BCoR (protein)
chain: SAKAVTSGLPGDTALLLPPSPRPSPRVHLPTQPAADTYSEFHKHYARISTSPSVALSKPYMTVSSEFPAARLSNGKYPKAPEGGEGAQPVPGHARKTAVQDRKDGSSPPLLEKQTVTKDVTDKPLDLSSKVVDVDASKADHMKKMAPTVLVHSRAGSGLVLSGSEIPKETLSPPGNGCAIYRSEIISTAPSSWVVPGPSPNEENNGKSMSLKNKALDWAIPQQRSSSCPRM
modifications: left off: large carriers
notes: hexahistidine tagged fusion protein containing residues 317 to 547 of BCoR

binding to BCL6 BTB domain in co-purification assay (BCL6 BTB domain [6]): did not
B3: BCoR 542 to 753: hexahistidine tagged fusion protein containing residues 542 to 753 of BCoR (protein, UniProt Q6W2J9 542-753, looked up, fragment)
chain: SSCPRMGGTDAVITNVSGSVSSAGRPASASPAPNANADGTKTSRSSVETTPSVIQHVGQPPATPAKHSSSTSSKGAKASNPEPSFKANENGLPPSSIFLSPNEAFRSPPIPYPRSYLPYPAPEGIAVSPLSLHGKGPVYPHPVLLPNGSLFPGHLAPKPGLPYGLPTGRPEFVTYQDALGLGMVHPMLIPHTPIEITKEEKPERRSRSHERA
modifications: hexahistidine tag
notes: hexahistidine tagged fusion protein containing residues 542 to 753 of BCoR
